B1: mek4-AP soluble receptor fusion protein (mouse Mek4 receptor extracellular domain fused to secreted human placental alkaline phosphatase) (receptor)
chain: ELSPQPSNEVNLLDSKTIQGELGWISYPSHGWEEISGVDEHYTPIRTYQVCNVMDHSQNNWLRTNWVPRNSAQKIYVELKFTLRDCNSIPLVLGTCKETFNLYYMESDDHGVKFREHQFTKIDTIAADESFTQMDLGDRILKLNTEIREVGPVNKKGFYLAFQDVGACVALVSVRVYFKKCPFTVKNLAMFPDTVPMDSQSLVEVRGSCVNNSKEEDPPRMYCSTEGEWLVPIGKCTCNAGYEERGFICQACRPGFYKASDGAAKCAKCPPHSSTQEDGSMNCRCENNYFRAEKDPPSMACARPPSAPRNVISNINETSVILDWSWPLDTGGRKDITFNIICKKCGWNVRQCEPCSPNVRFLPRQLGLTNTTVTVTDLLAHTNYTFEIDAVNGVSELSSPPRQYAAVSITTNQAAPSPVMTIKKDRTSRNSISLSWQEPEHPNGIILDYEVKYYQKQEQETSYTILRARGTNVTISSLKPDTTYVFQIRARTAAGYGTNSRKFEFETSPDSFSISGENSHGSSG
notes: extracellular domain; Used as unpurified conditioned supernatant of stably transfected NIH-3T3 cells; Apparent molecular weight about 150 kD; also called AP-mek4; not shown: secreted human placental alkaline phosphatase, as encoded by vector APtag-1 (Flanagan and Leder 1990)

Assay [1] concerns the target T1, cell surface ligand expressed endogenously in the rat liver stromal cell line BRL-3A (rat).
T1 construct: PI-PLC sensitive (GPI-linked) cell surface ligand; also called endogenous ligand of BRL-3A cells
Kind of assay: Scatchard analysis of AP fusion binding to BRL-3A cells (endogenous ligand). The procedure:
(§1) (FIGS. 3A and 3D) Cells were treated with saturating amounts of mek4-AP or sek-AP, or with AP, each at 500 OD/hr/ml. Columns show the average of two binding determinations, and error bars indicate the difference between the two. (FIGS. 3B–C and 3E–F) show the Scatchard analyses of binding. (FIGS. 3A–3C illsutrate binding to COS cells transfected with Elf-1, and FIGS. 3D–F show endogenous ligand expression by the BRL-3A cell line).
A panel of cell lines was tested with mek4-AP and sek-AP for endogenous expression of a cell surface ligand. Briefly, cells were treated with supernatants containing mek4-AP, sek-AP or unfused AP as a control, each at 1,000 OD/hr/ml. The cells were then washed, lysed and assayed colorimetrically for bound AP activity. […] The highest binding was shown by the rat liver stromal cell line BRL-3A, the mink lung fibroblast line Mv1Lu, and two neural crest cell lines, NC7mycblue and NC7EIablue. The BRL-3A cell line was analyzed further. […] The number of binding sites per BRL-3A cell is approximately 50,000. In situ staining was also used to examine the cell surface binding of mek4-AP and sek-AP to BRL-3A cells, and indicated expression of the ligand over the whole cell surface.

The target in assay [2] is T2, sek-AP soluble receptor fusion protein (mouse Sek receptor extracellular domain fused to secreted human … (mouse; human, UniProt Q03137 20-547).
T2 construct: extracellular domain; Used as unpurified conditioned supernatant of stably transfected NIH-3T3 cells; Apparent molecular weight about 150 kD; also called Ap-sek; not shown: secreted human placental alkaline phosphatase, as encoded by vector APtag-1 (Flanagan and Leder 1990)
T2 sequence (Q03137 other isoform, or with tags, fused parts or gaps): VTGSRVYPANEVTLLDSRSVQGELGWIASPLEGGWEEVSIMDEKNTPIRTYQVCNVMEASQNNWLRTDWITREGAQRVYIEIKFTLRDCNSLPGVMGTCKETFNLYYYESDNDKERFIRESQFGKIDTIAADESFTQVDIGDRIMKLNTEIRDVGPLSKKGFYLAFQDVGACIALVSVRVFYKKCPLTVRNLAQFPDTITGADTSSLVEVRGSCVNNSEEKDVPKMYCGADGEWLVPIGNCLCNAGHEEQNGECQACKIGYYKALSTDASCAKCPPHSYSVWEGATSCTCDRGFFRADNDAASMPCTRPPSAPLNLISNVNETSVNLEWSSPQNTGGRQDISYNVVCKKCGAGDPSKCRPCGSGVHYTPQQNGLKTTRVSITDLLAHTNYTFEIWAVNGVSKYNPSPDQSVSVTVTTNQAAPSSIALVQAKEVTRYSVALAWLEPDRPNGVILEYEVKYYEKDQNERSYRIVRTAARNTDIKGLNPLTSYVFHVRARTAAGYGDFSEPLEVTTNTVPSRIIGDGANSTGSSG
Kind of assay: Scatchard analysis, COS cells transfected with Elf-1.

The target in assay [3] is B1. The description is as above.
For assay [4], the target named is T2, sek-AP soluble receptor fusion protein …. Kind of assay: Scatchard analysis of AP fusion binding to COS cells transfected with Elf-1, colorimetric assay of bound AP activity. The procedure: as §1
The target in assay [5] is B1. Described as above. As to the method:
as §1

On to B1, for which, in assay [1], the Kd is 1.3 nM.

B2: Elf-1 (mouse EPH ligand family-1), expressed on the surface of transiently transfected COS cells (ligand)
chain: RNEDPARANADRYAVYWNRSNPRFQVSAVGDGGGYTVEVSINDYLDIYCPHYGAPLPPAERMERYILYMVNGEGHASCDHRQRGFKRWECNRPAAPGGPLKFSEKFQLFTPFSLGFEFRPGHEYYYISATPPNLVDRPCLRLKVYVRPTNETLYEAPEPIFTSN
modifications: C-terminal glycosyl phosphatidylinositol anchor (sensitive to PI-PLC); attachment residue not stated
notes: The full-length cDNA (209 amino acids) was transfected; also called muElf-1; cell surface Elf-1
Turning to B2, the dissociation constant Kd in assay [2] was roughly 10 nM; in assay [3], roughly 1 nM; in assay [4], 18 nM; in assay [5] it was 1.8 nM.

As usually defined, the Kd is the constant that tells how readily two partners part at equilibrium. A low value points to tighter binding.

These data come from US6777536 (Harvard, dated 2004).
